Data published in the supplement of paper PMC7877785.
± gives the uncertainty stated by the source.

Test: self-splicing fitness, log relative to wild type (ln ratio); higher = more splicing; Tetrahymena group I intron in knt gene, E. coli kanamycin selection, DiMSum; sequences stand for … in CUCUCU…GGAGGGAAAAGUUAUCAGGCAUGCACCUGGUAGCUAGUCUUUAAACCAAUAGAUUGCAUCGGUUUAAAAGGCAAGACCGUCAAAUUGCGGGAAAGGGGUCAACAGCCGUUCAGUACCAAGUCUCAGGGGAAACUUUGAGAUGGCCUUGCAAAGGGUAUGGUAAUAAGCUGACGGACAUGGUCCUAACCACGCAGCCAAGUCCUAAGUCAACAGAUCUUCUGUUGAUAUGGAUGCAGUUCACAGACUAAAUGUCGGUCGGGGAAGAUGUAUUCUUCUCAUAAGAUAUAGUCGGACCUCUCCUUAAUGGGAGCUAGCGGAUGAAGUGAUGCAACACUGGAGCCGCUGGGAACUAAUUUGUAUGCGAAAGUAUAUUGAUUAGUUUUGGAGUACUCGUGGUCG
Method in brief: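 Fitness was computed with DiMSum as the error-weighted combination of replicate fold changes, kanamycin versus none, each normalised to wild type. The library randomised all eight intron nucleotides of the P1ex region, with the intron placed in the knt kanamycin-resistance gene on pET-22b(+) in E. coli BL21(DE3). Six replicate transformations were grown overnight at 37°C or 30°C on LB agar with or without 25 μg/mL kanamycin, plus 100 μg/mL carbenicillin, 50 μM IPTG and 0.2% rhamnose. Pooled colonies were amplicon-sequenced on an Illumina HiSeq 2500.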

Sequence	self-splicing fitness (ln) (30 °C)	self-splicing fitness (ln) (37 °C)
AAUGAGCAAUAUUACGUUCG	-1.74 ± 0.11	-0.765 ± 0.12
AAUUAGCAAUAUUACGAAAG	-3.12 ± 0.19	-1.51 ± 0.18
AAUUAGCAAUAUUACGAACA	-0.672 ± 0.16	-0.784 ± 0.18
AAUUAGCAAUAUUACGACAA	-1.79 ± 0.21	0.209 ± 0.24
AAUUAGCAAUAUUACGACAC	-0.631 ± 0.11	-0.0896 ± 0.14
AAUUAGCAAUAUUACGACCC		0.136 ± 0.36
AAUUAGCAAUAUUACGACGU	0.421 ± 0.095	-0.3 ± 0.075
AAUUAGCAAUAUUACGAGGG	-3.23 ± 0.23	-2.93 ± 0.3
AAUUAGCAAUAUUACGAGGU	-3.26 ± 0.2	-3.02 ± 0.24
AAUUAGCAAUAUUACGCAAA	-1.96 ± 0.18	0.00784 ± 0.17
AAUUAGCAAUAUUACGCGCC	-0.89 ± 0.23	-0.821 ± 0.34
AAUUAGCAAUAUUACGGAAU	-2.33 ± 0.27	-0.461 ± 0.18
AAUUAGCAAUAUUACGGACA	-0.45 ± 0.19	-1.28 ± 0.18
AAUUAGCAAUAUUACGGCCC	-0.766 ± 0.18	-0.626 ± 0.29
AAUUAGCAAUAUUACGGCCU	-0.324 ± 0.097	0.38 ± 0.16
AAUUAGCAAUAUUACGGCGA	-0.312 ± 0.1	0.113 ± 0.1
AAUUAGCAAUAUUACGGGAA	-1.88 ± 0.32	-1.88 ± 0.3
AAUUAGCAAUAUUACGGGAC		-0.571 ± 0.23
AAUUAGCAAUAUUACGGGUU	-1.4 ± 0.12	-0.955 ± 0.12
AAUUAGCAAUAUUACGGUGU	-2.48 ± 0.091	-1.32 ± 0.098
AAUUAGCAAUAUUACGUCGG	-2.72 ± 0.19	-1.66 ± 0.21
AAUUAGCAAUAUUACGUGAC	-2.05 ± 0.21	-2.73 ± 0.23
ACAAAGCAAUAUUACGAACA	-2.3 ± 0.12	-0.578 ± 0.1
ACAAAGCAAUAUUACGAACG	-1.1 ± 0.084	0.144 ± 0.093
